This note sets out measurements from patent US20100150916A1 (UNIVERSITAET STUTTGART, published 2010).

The target of assay [1] is T1, TNFR2-Fas chimeric receptor (TNFR2-ED and Fas) on mouse embryonic fibroblasts (UniProt P20333 23-257; P25445 191-335).
T1 construct: extracellular domain;domain: cytoplasmic domain; Stably expressed on mouse embryonic fibroblasts
T1 sequence (looked up): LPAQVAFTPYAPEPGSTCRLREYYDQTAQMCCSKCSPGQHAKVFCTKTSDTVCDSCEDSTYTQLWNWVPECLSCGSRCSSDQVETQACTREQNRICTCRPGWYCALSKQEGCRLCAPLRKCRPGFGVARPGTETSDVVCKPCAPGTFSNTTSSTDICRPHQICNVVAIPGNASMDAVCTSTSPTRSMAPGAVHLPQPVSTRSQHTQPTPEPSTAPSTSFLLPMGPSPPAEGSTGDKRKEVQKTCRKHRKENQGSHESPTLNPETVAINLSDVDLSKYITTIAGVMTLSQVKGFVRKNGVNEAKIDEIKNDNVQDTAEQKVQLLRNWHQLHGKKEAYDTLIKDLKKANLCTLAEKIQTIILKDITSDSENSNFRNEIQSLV
As to the kind of experiment: indirect immunofluorescence flow cytometry on transfected mouse embryonic fibroblasts. As for the experimental part:
These transfectants were incubated on ice for two hours with 2.5 μg/ml of IZI-06.1-Fab (A-C, E, white histograms), the TNFR1-specific antibody mAb225 (D and F, white histograms), the TNFR2-specific antibody 80M2 (B, white+bold histogram) or were only treated with secondary antibodies as control (gray histograms). The incubation buffer was PBA (PBS+0.05% bovine serum albumin+0.02% NaN3). Cells were incubated with FITC-labeled secondary antibodies (80M2 and mAb225: Goat anti-murine IgG; IZI-06.1 Fab: Goat anti-HIS-tag) and cells were analyzed by flow cytometry. Cells were gated for viable cells and total fluorescence intensities (MnX) are given for each antibody. (Con=control values).
A His-tag positive IZI-06.1-Fab is used to determine specificity of TNFR1 binding or TNFR1-Fas binding, respectively as well as for characterization of the epitope recognized by the antibody derivative. […] This construct, however, is readily detected by another TNFR1-specific mab, mab225 (FIG. 7D).

Assay [2] concerns the target T2, TNFR1-Fas chimeric receptor (extracellular domain of TNFR1 and cytoplasmic domain of death receptor Fas) on … (human, UniProt P19438 30-211; P25445 191-335).
T2 construct: extracellular domain;domain: cytoplasmic domain; Stably expressed on mouse embryonic fibroblasts; also called TNFR1-Fas chimera
T2 sequence (looked up): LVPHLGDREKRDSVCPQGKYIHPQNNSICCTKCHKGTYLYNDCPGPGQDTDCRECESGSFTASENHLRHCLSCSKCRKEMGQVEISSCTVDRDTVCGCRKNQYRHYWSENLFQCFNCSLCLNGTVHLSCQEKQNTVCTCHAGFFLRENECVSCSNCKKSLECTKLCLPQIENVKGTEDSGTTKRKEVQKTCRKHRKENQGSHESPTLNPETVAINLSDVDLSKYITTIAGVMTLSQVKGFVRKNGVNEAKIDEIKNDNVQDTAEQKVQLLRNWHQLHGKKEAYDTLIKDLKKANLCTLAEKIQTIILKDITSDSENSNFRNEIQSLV
As to the kind of experiment: saturation binding of 125I-labelled Fab to TNFR1-Fas positive mouse fibroblasts on ice, one-site hyperbola and Scatchard plot. As for the experimental part:
Nonspecific binding has been subtracted.
To determine the affinity (KD value) of IZI-06.1 Fab, 200.000 TNFR1-Fas positive cells are incubated on ice for three hours with increasing concentrations of labelled IZI-06.1 (2.5-50 ng in a total volume of 150 μl). As binding buffer, phosphate buffered saline+2% fetal calf serum+0.02% NaN₃ is used. Non-specific binding is determined by co-incubating cells with the 180-fold respective concentration of unlabelled IZI-06.1. Bound ¹²⁵I-Fab is determined with a gamma-counter and resulting data is used to fit a one-site binding hyperbola that contains the saturation binding constant KD: […]

B1: IZI-06.1 Fab (Fab, V domains shown)
VH: QVQLVQSGAEVKKPGSSVKVSCKASGYTFTDFYINWVRQAPGQGLEWIGEIYPYSGHAYYNEKFKARVTITADKSTSTAYMELSSLRSEDTAVYYCARWDFLDYWGQGTTVTVSS
VL: DIVMTQSPLSLPVTPGEPASISCRSSQSLLHSNGNTYLHWYLQKPGQSPQLLIYTVSNRFSGVPDRFSGSGSGTDFTLKISRVEAEDVGVYYCSQSTHVPYTFGGGTKVEIKR
modifications: 125I-labelled (chloramine T method) in the saturation binding study
notes: Fab expressed in the E. coli periplasm; the pelB leader is removed; also called humanized H398-Fab; Fab IZI-06.1; not shown: CH1 domain of the human immunoglobulin gamma1 heavy chain
Regarding B1, in assay [1], the binding result is given as “no binding (tested: 2.5 µg/ml)”. In assay [2], this molecule returned a Kd of 0.778 nM.
